Test results as given in patent US20130059793A1 (University of Texas, published 2013).
Ends that are not written are not given here.

Key:
[1] = biological target: T1, VEGF (UniProt P15692-4 27-191, limits assumed); experiment: phage binding assay on proteins coated onto microtiter wells
T1 construct: Negative control protein; also called negative control protein VEGF

[2] = biological target: T2, bovine serum albumin (BSA) (bovine, UniProt P02769 25-607); experiment: phage binding assay on immobilized proteins
T2 construct: Negative control protein
T2 sequence (P02769 25-607 limits assumed): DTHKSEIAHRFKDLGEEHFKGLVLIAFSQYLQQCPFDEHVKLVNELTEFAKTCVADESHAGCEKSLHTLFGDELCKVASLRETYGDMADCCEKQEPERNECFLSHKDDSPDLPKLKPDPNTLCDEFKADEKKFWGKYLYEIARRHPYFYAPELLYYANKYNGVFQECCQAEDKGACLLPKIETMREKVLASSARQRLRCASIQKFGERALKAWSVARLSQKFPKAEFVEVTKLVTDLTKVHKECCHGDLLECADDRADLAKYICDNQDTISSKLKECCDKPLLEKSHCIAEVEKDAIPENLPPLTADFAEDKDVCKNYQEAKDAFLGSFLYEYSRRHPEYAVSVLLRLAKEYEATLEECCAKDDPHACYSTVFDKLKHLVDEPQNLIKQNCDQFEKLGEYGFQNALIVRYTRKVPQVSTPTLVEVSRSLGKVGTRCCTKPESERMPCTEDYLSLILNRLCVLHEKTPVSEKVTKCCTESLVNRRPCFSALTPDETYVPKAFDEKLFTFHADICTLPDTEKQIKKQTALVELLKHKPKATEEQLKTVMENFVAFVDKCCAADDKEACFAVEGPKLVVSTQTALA

[3] = biological target: T3, epidermal growth factor (EGF) (UniProt P01133 971-1023); experiment: phage binding assay on proteins coated onto microtiter wells
T3 construct: Bought
T3 sequence (P01133 971-1023 limits assumed): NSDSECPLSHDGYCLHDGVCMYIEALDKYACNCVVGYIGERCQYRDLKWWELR

[4] = biological target: T4, transforming growth factor alpha (TGF-α) (UniProt P01135 40-89); experiment: as above
T4 construct: Bought; also called Tumor Growth Factor alpha

T1 sequence (P15692 other isoform, or with tags, fused parts or gaps limits assumed): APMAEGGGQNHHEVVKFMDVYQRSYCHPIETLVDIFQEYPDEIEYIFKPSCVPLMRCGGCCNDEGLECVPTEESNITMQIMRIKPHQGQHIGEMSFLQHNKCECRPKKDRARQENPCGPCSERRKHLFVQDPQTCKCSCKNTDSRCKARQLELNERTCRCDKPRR

B1: CVRAC-displaying phage (peptide)
peptide: CVRAC
modifications: not fully specified (bridges); also: cyclic, ring type not given here, displayed on phage
notes: the phage coat protein that carries the insert is not described; also called CVRAC-phage; phage displaying the cyclic peptide CVRAC
[1]
  binding result: no binding
[2]
  binding result: no binding

B2: CVAAC-displaying phage (peptide)
peptide: CVAAC
modifications: not fully specified (bridges); also: cyclic, ring type not given here, displayed on phage
notes: coat protein fusion not described; also called CVAAC-phage; alanine scanning control
[3]
  binding result: no binding
[4]
  binding result: no binding
